Data on 1 substance can be found in publication PMC2188490.

Broadly, the Kd is a measure of binding affinity in units of concentration.

Like-named read-outs stand apart in the source and are kept apart here.

Holding throughout (experiment): kinetic titration of prothrombinase activity
Experiment [1] deals with factor V/Va (mixture of nonactivated and activated factor V) purified from rabbit plasma (rabbit).
The target is the same in experiment [2]. This is another data set of the same source.
The target in experiment [3] is high-affinity factor Xa receptor on cultured rabbit alveolar macrophages (rabbit (endogenous in alveolar macrophages)).

For the substance factor Xa (enzyme), the Kd in experiment [1] stood at 821 pM; in experiment [2], 603 pM; in experiment [3], 211 pM.
